Data from publication PMC2889767.

B1: Pal-1 wild type (dsDNA)
DNA 1: GGGAGTGGTCACCATGGTGACAGGAG
DNA 2: GGCTCCTGTCACCATGGTGACCACTC
B2: Pal-2 wild type (dsDNA)
DNA 1: GGCAATGGTCACCATAGAAACCACAG
DNA 2: GGCTGTGGTTTCTATGGTGACCATTG

Biological target: T1, Rfx3 (in vitro translated) (UniProt P48381 1-749)
T1 sequence: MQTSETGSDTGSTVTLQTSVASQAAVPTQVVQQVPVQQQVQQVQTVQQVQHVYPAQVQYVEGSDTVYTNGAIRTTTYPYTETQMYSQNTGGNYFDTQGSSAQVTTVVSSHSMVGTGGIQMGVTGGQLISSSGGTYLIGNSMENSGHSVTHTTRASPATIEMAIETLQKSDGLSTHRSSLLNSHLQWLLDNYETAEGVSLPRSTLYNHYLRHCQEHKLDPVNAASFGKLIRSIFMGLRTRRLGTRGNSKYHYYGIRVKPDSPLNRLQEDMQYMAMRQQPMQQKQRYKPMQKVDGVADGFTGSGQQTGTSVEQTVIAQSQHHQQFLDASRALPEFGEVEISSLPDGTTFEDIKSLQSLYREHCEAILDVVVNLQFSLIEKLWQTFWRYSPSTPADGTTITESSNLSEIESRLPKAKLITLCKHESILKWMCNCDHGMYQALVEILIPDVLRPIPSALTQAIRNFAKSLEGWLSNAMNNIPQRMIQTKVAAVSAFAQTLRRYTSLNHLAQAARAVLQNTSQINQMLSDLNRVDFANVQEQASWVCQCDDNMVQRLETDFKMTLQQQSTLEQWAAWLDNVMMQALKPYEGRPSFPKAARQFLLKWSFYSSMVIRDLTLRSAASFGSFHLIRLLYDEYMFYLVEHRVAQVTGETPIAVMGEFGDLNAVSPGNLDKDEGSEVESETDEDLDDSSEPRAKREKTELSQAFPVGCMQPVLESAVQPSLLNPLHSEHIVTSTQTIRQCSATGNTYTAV
Assay: EMSA

Binder	binding result
B1	binds
B2	binds
